From article PMC4595432

Biological target: DnaA fused to the N-terminal domain of the phage 434 repressor (pcI434-dnaA) (E. coli K12) (UniProt P03004)
Experiment: two-hybrid; bacterial two-hybrid system in E. coli R721 (434-P22 chimeric operator upstream of lacZ); fusions to the N-terminal domains of the 434 and P22 repressors; β-galactosidase in Miller units, cultures at A600 0.5 in LB with 0.1 mM IPTG; an interaction lowers the activity and is scored positive when the ratio to R721 is below 0.5

## HtpG fused to the N-terminal domain of the phage P22 repressor (pcIP22-htpG) (from UniProt P0A6Z3 1-624) (natural protein)
  ratio β-galactosidase activity tested strain/R721: 0.19
  β-galactosidase activity: 1070 Miller units
